For assay [1], the target named is T1, MRAS(1–178)–Avi, biotinylated, wild type (human, UniProt O14807 1-178, biotin on the Avi tag).
T1 chain: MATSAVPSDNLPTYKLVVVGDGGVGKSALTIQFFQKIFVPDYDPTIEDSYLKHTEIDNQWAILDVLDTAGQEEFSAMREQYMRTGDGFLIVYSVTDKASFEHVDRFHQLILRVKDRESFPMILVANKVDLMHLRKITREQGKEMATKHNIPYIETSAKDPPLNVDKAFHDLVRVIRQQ
The assay can be described thus: SPR; +PP1Cα(P50R).

Assay [2] deals with T1, MRAS(1–178)–Avi, biotinylated, wild type. The assay can be described thus: SPR; +PP1Cα. (SPR reads the build-up and loss of mass on a sensor chip optically.)

Consider one molecule from paper PMC9452295 (2022).

B1: SHOC2 (residues 80–582, LRR domain), wild type (domain or fragment)
chain: GTRKKSSNAEVIKELNKCREENSMRLDLSKRSIHILPSSIKELTQLTELYLYSNKLQSLPAEVGCLVNLMTLALSENSLTSLPDSLDNLKKLRMLDLRHNKLREIPSVVYRLDSLTTLYLRFNRITTVEKDIKNLSKLSMLSIRENKIKQLPAEIGELCNLITLDVAHNQLEHLPKEIGNCTQITNLDLQHNELLDLPDTIGNLSSLSRLGLRYNRLSAIPRSLAKCSALEELNLENNNISTLPESLLSSLVKLNSLTLARNCFQLYPVGGPSQFSTIYSLNMEHNRINKIPFGIFSRAKVLSKLNMKDNQLTSLPLDFGTWTSMVELNLATNQLTKIPEDVSGLVSLEVLILSNNLLKKLPHGLGNLRKLRELDLEENKLESLPNEIAYLKDLQKLVLTNNQLTTLPRGIGHLTNLTHLGLGENLLTHLPEEIGTLENLEELYLNDNPNLHSLPFELALCSKLSIMSIENCPLSHLPPQIVAGGPSFIIQFLKMQGPYRAMV
In general, Kd refers to the constant that tells how readily two partners part at equilibrium. Lower therefore signals tighter binding. As to B1, the figures for the dissociation constant (Kd) in assay [1] and in assay [2] were 34.8 nM and 86.3 nM, respectively.
